Assay: soluble on expression in E. coli; label from the status in PepcDB or PDB records

Sequence	soluble on expression in E. coli
MGSDKIHHHHHHMQPRLVIAGTHSGVGKTTVTLGLMAAFVEKGNIVQGFKCGPDYIDPSYHRAVTKRASRNLDSWMVSEDVVNDIFIEGCNGADLSIIEGVMGFYDGKASTSDKGSTADISLLLQAPVLLVVDISGMARSAAAVVKGFQQLNEKVKIAGVILNGAGSERHAEMCSEAIKEACGIPALGYLKKGDVPSIPERHLGLVPALERGEHDSLFSQLAAVVSRQFDLERIERLALEASALSRRTNLFQQTKRPSVVKIAVAYDAAFHFYYEENFTLLRQAGAELVYFSPLRGEDLPSHCDGLYLGGGFPEEFADELSQWIKDHPQLKKRVQSGLPTLAECGGYMFLGEQLTTTKGKTVEMAGVIPMVVQMENKLVSLGYRDVTPLDDSFLLSKGQQIRGHEFHYSKAVYTETERPAYFVKGLFGEGKEGYMSDHLLAGYTHLHFASEPAVATQWVKACEVYKNRRLHRGQVSQ	not soluble
MGSDKIHHHHHHMQSPIPVLSMRKLYLGASDRQQFIADLGRAARDVGFFYLEDHGISLAEQVKVLDTAKSFFALSDAEKKQVQMIHSPHFRGYSANYSELTAGRPDRREQFDIMDELPALSASAIHHEWQKLIGPNQWPRQLPAIKSQLLSWQDKLTEVSLQLLAALCESLEQPADALAETISNGPYRHTKLIKYPGSPEASGQGVGAHKDPGYLTLVLQDENSGLEVEYEQQWYKVAPRPGAFVVNIGELLELASNGYLKATNHRVSSPKTGVTRYSSAFFMAAQLNASVPVLKLPSHLAKHAKGPTSDPGNPLLHNVGENVMKGRKRSHPDVSARFYASEEKCSSC	not soluble
MGSDKIHHHHHHMQSTASHTKAPGKSHPVVTEDQYFSVSPLMLLADNAALFSVYLRQGNNFVLYTHAGEMFTHRHKQRLAENGVTEVWLKESQRHAYTAHVEQHLGNVLADDSLPAEARAGALYGIASDALQDVFAQHGAGALPADTARRARQLVEHIISFLKVPNGITALGRFIAHDYHSWTHSLNTTFYTLGILQSYGLPDESMAHIGLGAMLHDIGKAEIPSSILLKPGPLTASERQCINTHPLMGVARLAQTELPQTTLNCILFHHEKLDGSGYPSGIGGTAIPLAVRAVTVADIYDALASERPYAAARPPFAVLQLMRGEMADELDMDVFKNFVLMLSNAGLTKT	not soluble
MGSDKIHHHHHHMQTLLITSSFDKTCDYIQVKFPELNYFRLNVDKFSSYKLEIIADGFRIECGEHRLFSSECSSIYFRKPVFENLDGNIDVQYHNFVHKESYSLIEGLIESFSGRCLSKPSVMRRANNKVFQIMLAKSVGFLMPQLSITNDEIVLKKWAKDDAIVKPLAIGTVEYKTKKEFVQTNRLSSEKDTSALKYAPVYLQKFVDKDYEVRVTAINGQFFPARIDASNPVDWRKPNTETLFTKCVLPENIEQQCRTYMYKSSMDFGCFDFLVKDNVWYFLEMNANGQWGWLDNLFEGKISDAIATYLKSGLKNAHC	not soluble
MGSDKIHHHHHHMQVLLVGGTGTLGRQIARRAIDAGHQVRCMVRKPRKGAFLQEWGCELTCGDLLDPETIDYSLDGIDAVIDAATSRPDDSASVYTTDWDGKLNLLRACEKAGVTRYVFLSLLAAEKHLNVPLMDIKFCTERLLADSSFDYTILQGVAFMQGLIGQIAIPVLENQTVWVSETPTAVAYMNTQDVARFAVAALERPETIRRSFPVVGPKAWTSEEIVQFCEKSSSKTAKVIRVSPFLIGLSQRVVSFFEQSVNMAERLAFAEVTGGGIALDAPMDDTYSCFGLDSSETTPLESYISEYYDTILKRLREMEADLDEESRKKLPF	not soluble
MGSDKIHHHHHHMREEAPSRAQRVIDNNDILFQCVRPYQKNNYIHRILNTSNQQWVASTGYAQIRTTELPNYIYHLLNTDEFNRKVMVRCTGSSYPAINSEDLATIHLYYTPDKKEQLKISRLLDLLDKRIATQNKIIEKLQSLIKGIAQHCIKESTSGNTYVKLGDICQITTGKLDANAQVDNGIYPFFTCAEQPFKIDSFAFDTEALLISGNGANLGYINYYKGKFNAYQRTVSIR	not soluble
MGSDKIHHHHHHMREENYEEAAKAFNAAIEANPSDPIGFVNFGNLLGMVGELDKALIFFDKAIGLQEDCAPAYYGAGTIYYKQEKFEDGAKMFKQAIAHKLNETDVYFMLGMCYYQLGALPHAQANFQRALELDSNDVEARFQLGLCLAQLEQVDEAIKHLQLVVEHVPNHADAHFNLGVAYAYKDRLEEALAHFERAIHIQPEHILAHNGKKTVEEVLNKGANEA	not soluble
MGSDKIHHHHHHMRETIREIQKVAYWLAIKGLSEANAGNISVRLDERPEGYEVKSVNEYGFDYDGPEMYLLITATGSRMREVYEDDSKICLLHVLPGKHYEILHGNGKPTSEFPTHLMIHAKFKEMNPEKKAIVHTHPLNLLTLMNLEEFQELLPKMMKIHPEVLIFFPQGISVVEFEKPGSVELGLKTVEKSEGKDAVLWDKHGVVAFGKDVAEAYDRVEILEKAAEILLRVLSLGRNPTGVPEGWL	not soluble
MGSDKIHHHHHHMRGGNIETMVAGTIKVVQMLPDLNEGGVEKGTLELGAFLTESGHQSIVISGGGRMVSQLESEGSRHLTWPHIGEKSPRCLNYFFPLRRFLLKEGVDIVHLRSRLPAWVAFLAWKSLPVKRRPVLITTFHGFYSVNFYSAIMTRGERIIAVSKTIADHIREAYDVAAERIVLIPRGLDEEQFNPENVTVERIRNLKERWGLNGNTDPVVMLPGRVTRLKGQDVFLQSLAGIKELPWKAIMVGESDATSEYTRILEKMVGDPDLRERVKFVGHCSDMPAAMTLADIVVSTSTKPESFGRTSVEAQAMRKPVIVSAHGGSLETVLDGKTGWHVKPGDSEALSACLRIALSDESVRKKMGVEGRKWVVSQFTVTKMCEKTVALYQELLLRKSSWSQI	not soluble
MGSDKIHHHHHHMRIAQIAPLHEAVPPKLYGGTERVVSYLTEALVEMGHDVTLFASGDSQTSAKLEAVWPQALRLDPTIRDVMAPHMLLLEEVRRRADEFDVLHFHIDYYPFPLFSRQPVPHLTTLHGRLDLPELQPIFNTFSDVPVVSISDNQRIPLSQANWLQTTYHGLPENLLKPIPDVKPSYLAFLGRISPEKRVDTAIRIAEQAGMPIKIAAKLDKADRAYYEEKIKPLFSLPHVEYIGEISEAEKAEFLGNAHALLFPIDWPEPFGLVMIEAMACGTPVIAFKRGSVPEVIENGVSGFVVEDELSAVAAVKRLNTLPRERVRAAFDARFTSKVMARNYVKGYEELLRQKRRTVLREVNAG	not soluble
MGSDKIHHHHHHMRILYYDCFCGISGDMNLAALVDLGVPKKYLIDELLKLNLGSEYEIKIEKGQKLGITGTRVDVILKDEHHNKHELEEVLHNHEHKHNHHEIKNDEPAHSHEHHHRSLRDIEEIINSSTLNDKVKKLSLNIFMKVAEAEAKVHGRELYEVHFHEVGAVDSIVDIVGAAICIDYLKVDKILASRVQVGGGFVRCAHGIMPVPAPATVEILKNIPINTGIVQFETTTPTGAAILAANVKEFTQKLDFIIKKTAYGIGHRDLEIPNVLRVYLGEEESFQDIENQYILETNIDDMNPEIYGYVEEKLFKVGALDVFKTPICMKKGRPGIKLSVLTNEKSEREVLDVIFEETTSIGVRRYKVEKIMLKREFSKVKTEFGDITVKKAYYKGELVKYKPEYEECKDIAREKNVSIHKVYKAVYKQDLK	not soluble
MGSDKIHHHHHHMRINVEEAIEKLLANQLVAMPTETVYGLAARLTCPGAIKKIFEIKGRSLVNPLIIHVANPIDVCAYAIALPPHFDALTHAFWPGPLTLIVPIQLDLVDSIVRAGLPTAAFRMPSHPLTLHVIRAVGPLVMPSANLSGKPSSTDVKHVEMDFGLDFPVLDGGPCQEGVESTILHYRNSQWEIARLGALSATVFQPILGYEPIYQKIVKNDQIISPGQMFRHYAPQATLFLGDQKQITEADFIVGFTEKSYPVEKRVLYLGSLSNPHEVAENLYAVLRQLDFEKAKIAWVDMDFPSEGLWKTIAERLSRAGEK	not soluble
MGSDKIHHHHHHMRKEKLYTGCLLLMALITGSCSEEENPEVRPATKPAEPYTSYYYYSYEAARQLSATDFALAEGQFTPGPTYIKGDTLFVANIQSGAFSLELYDRNKNRHLASLKSWKYKEAEQKFPDKIEAIGISGNRLYLANISSRIDVFDVRTLEFITRIGTGNWGDGINQMVHSHAMAITPDGNIMIRTKKNLLVYREADVTLENYQKVPFYCRSKGDGMDVNNGFHSHQMVQDSTGIVYLADFGQYGNQKIQAIDTTLIEKGDQKILIDTEKTLPLSFNPCGIALHENRMILSAQNGSLFIYDRTKGNWENSFKSVKGYTFKKPEKLLVDQNTLWVSDVNAQKLVEVKIYKNEIREY	not soluble
MGSDKIHHHHHHMRKKNYYLVSDGKLRRHENTIYFENEDGKRPIPINSIYAIYALGSLSITSKAISLLAKEGVCIHFFNRYGYYIGSFYPRESLVSGEVVLRQAEHHLDSEKRLHLARAFVEGAILNMARVLKKAEQDDSDVIASLQHLSSAKSIVELMGAEAAARNAYYTKFDEILKNFEFGKRSRMPPENEVNAMISFGNSLLYSAVLSEIYHTQLNPAISYLHEPSERRFSLALDIAELFKPVIVDRLIFYLVNNGIVTESDFDSRLGGILLSEEGKKKFVRHFNERLEKTVKHRKLNRKVSYQRLIRLECYKLVKHFTAVEKYSPFVMWW	not soluble
MGSDKIHHHHHHMRKLKKYKPTAFIADGSYYDEDAADYAVAFIEALSHTKGLWAGKPFELIDWQEQIIRDLFGILKPDGYRQFNTAYVEIPKKMGKSELAAAIALLLTCGDGEERAEVYGCAADRQQASIVFEVAADMVRMCPALNKRVKLLASTKRLVYLPTNSFYQVLSAEAYSKHGFNIHGVVFDELHTQPNRKLFDVMTKGSGDARTQPLYFLITTAGTDTQSICYETHQKAVDIIEGRKYDPTFYPVIYGAKEEDDWTDPKVWKKANPSLGITVGIDKVRAACESAKQNPAEENSFRQLRLNQWVKQSVRWMPMAKWDACAFPVIPESLEGRVCYGGLDLSSTTDITAFVLVFPPEDETDKYIVLPYFWMPEDNIDLRVRRDHVQYDLWEKQGYILTTEGNVVHYGYIERFIEELGEKYNIREIAFDRWGAVQMVQNLEGAGFTVVPFGQGFKDMSPPTKELMKLTLEERIAHGGHPVLRWMMDNIFIKTDPAGNVKPDKEKSTEKIDGAVATIMALDRAIRCGSGNSGDSVYDERGLIVF	not soluble
MGSDKIHHHHHHMRKSIVLSTAMALAAGTAAYAAEISDGKVKIGILNDQSGVYANFGGKYSYEAAKMAVEDFGGKVLGAPVEVVTADHQNKADVASNIARQWYDTEQVDSIMELTSSSVGLAVQALSKDKKKITVNTGAATTELTGKQCSPYGFHWAYDTYSLAVGTGGALVKQGGDSWFFLTADYAFGYSLEENTSNFVKANGGKVLGSVRHPLATTDYSSFLLQAQSSGAKVIGLANAGLDTSNAIKQASEFGIVAGGQRLAALLFTLAEVHGLGLEAAQGLTLTEGFYWDRDDESRKFGERFKERTGAMPNMIHTGTYSAVLHYLKAIEKAGTDDADAVAKAMKEMPVNDVFAKDGHVAANGRMIHDMYLMEVKKPDESKQPWDYYKVLATIPGKEAFMDPTKSGCPLVKQ	not soluble
MGSDKIHHHHHHMRLKISLLSPADSFEIDLNHSYHLASAIYRAIERADPSLSIELHKPDVPKFFTFSKLFIPKRKFRIEGEKMVSDCEEAYFFFSTLRNEVAASLVEGLLSKPEIRICGVDFIVSEVSVLPEREVKGREKFVTLSPIYASTSVGENGRRRIFDLYPKDSKFYEVILQNLVKKYVLYYKSAPENLDFHMKPLNVKAKRIRLKDTFHRCVEMVFKAEGSPELLDVGYKAGFGSKNSMGFGMVKVV	not soluble
MGSDKIHHHHHHMRLYESLLEMCLNKAWEHQTLALENPSVACMVLDKNHEILSLETHKKAKTPHAEVLAAQSALKILRPSLKNDLEKLEDPKTLSDFLKTHHDNAFTDCVFLITLEPCNSYGKTPACSELLEILKPKRVVIATEENEAKKGGLARLQKARIETIICHNLENKAKDLLLPFRVMEQKGRFNLFKLALRMNGDYHHGKITGQKSVIFTHNQRAICDTLIVSGKTIRTDNPLLDARFCDSFYQNKNPNIAILSKRSIDPNSKVFSAPNRLVNTFHDPKDLPLEKGFNFIEGGWELFESLRDKIDALLLHSHASMIGEAFKALALKTPFKGRLLHAQILENEALLWIENS	not soluble
